Experimental data published in PMC3907296, “How a Retrotransposon Exploits the Plant's Heat Stress Response for Its Activation”.

Target: HSFA2 (Arabidopsis thaliana, UniProt O80982 1-345)
Experiment: competition EMSA; unlabeled HRE fragment, 200-fold excess, competes with labeled LTR; 10 mM Tris pH 7.5, 1 mM EDTA, 0.1 M KCl, 0.1 mM DTT, 5% glycerol, 0.01 mg/ml BSA; RT 30 min; 5% native PAGE, 0.5x TBE
Conditions: protein: recombinant; tags: C-terminal 6xHis (pET-24b, NdeI/XhoI); chain copies: 3; blunt

Chain of HSFA2 (O80982 whole entry, the tested form may be a part): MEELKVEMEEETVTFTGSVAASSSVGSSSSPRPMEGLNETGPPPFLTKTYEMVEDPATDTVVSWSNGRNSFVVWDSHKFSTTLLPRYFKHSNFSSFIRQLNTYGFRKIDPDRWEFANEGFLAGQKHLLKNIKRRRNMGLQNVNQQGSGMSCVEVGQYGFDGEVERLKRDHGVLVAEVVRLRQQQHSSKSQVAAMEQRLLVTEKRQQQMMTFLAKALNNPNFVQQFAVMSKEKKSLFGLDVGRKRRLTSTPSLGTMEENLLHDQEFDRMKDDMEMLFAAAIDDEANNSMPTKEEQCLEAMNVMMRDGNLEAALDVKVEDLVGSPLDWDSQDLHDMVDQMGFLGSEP

B1: ONSEN LTR complete HRE, 51 bp (dsDNA)
DNA 1: CCACCTCCTTAAAAGATTCTAGAAATTTTCTAGAATCATCTTCCACCTCCT
DNA 2: AGGAGGTGGAAGATGATTCTAGAAAATTTCTAGAATCTTTTAAGGAGGTGG
Does B1 bind?
Result: binds
